From the supplement of paper PMC11908140

B1: library; numbered along this chain (parent)
chain: MRKPRAAVGSGHRKQAASQEGRQKHAKNNSQAKPSACDGLARQPEEVVLQASVSSYHLFRDVAEVTAFRGSLLSWYDQEKRDLPWRRRAEDEMDLDRRAYAVWVSEVMLQQTQVATVINYYTGWMQKWPTLQDLASASLEEVNQLWAGLGYYSRGRRLQEGARKVVEELGGHMPRTAETLQQLLPGVGRYTAGAIASIAFGQATGVVDGNVARVLCRVRAIGADPSSTLVSQQLWGLAQQLVDPARPGDFNQAAMELGATVCTPQRPLCSQCPVESLCRARQRVEQEQLLASGSLSGSPDVEECAPNTGQCHLCLPPSEPWDQTLGVVNFPRKASRKPPREESSATCVLEQPGALGAQILLVQRPNSGLLAGLWEFPSVTWEPSEQLQRKALLQELQRWAGPLPATHLRHLGEVVHTFSHIKLTYQVYGLALEGQTPVTTVPPGARWLTQEEFHTAAVSTAMKKVFRVYQGQQPGTCMGSKRSQVSSPCSRKKPRMGQQVLDNFFRSHISTDAHSLNSAAQ

Variants of: B1
Experiment: 8OG:A repair function score (normalized; synonymous = 0, nonsense = -1) (normalized log-likelihood score); higher = more repair activity (WT-like)
Settings: with 8OG:A DNA repair reporter (GFP) in HEK-293 MUTYH KO cells
Procedure, shortened: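 Lentiviral MUTYH cDNA NNN codon-scan libraries were expressed in MUTYH knockout HEK-293 cells with 10 pg/ml doxycycline, and the cells received an 8OG:A GFP repair reporter together with mCherry. At 72 h, viable mCherry+ cells went into GFP+ (repair) or GFP− bins, three replicates per tile, before tile amplicons were sequenced. A repair function score was then built from per-tile Rosace fitness scores, anchored on the synonymous and nonsense distributions. Synonymous medians sat at 0 and nonsense at -1, and variants under 300 counts per million at the start were left out.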
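Also: cells sorted at 72 h after reporter transfection.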

8OG:A repair function score: each site, then its substitutions
E452: P -0.856; N -0.395; Y -0.442; Q -0.335; W -0.631; K -0.211; C -0.0884; L -0.252; D -0.0961; S -0.0485; G -0.228; V -0.351; M -0.205; I -0.47; A -0.387; R -0.0533; H -0.275; F -0.387; T 0.0217
A461: M -0.276; V -0.124; S -0.119; R -0.632; N -0.222; C -0.0899; D -0.732; W -1.22; F -0.265; L -0.0454; E -0.842; I -0.152; T -0.23; G 0.00127; Q -0.495; Y -0.726; P -0.267; K -0.813; H -0.545
A457: L -0.583; R -0.672; K -0.815; P -0.15; N -0.58; F -0.356; T -0.533; Q -0.402; D -0.44; S -0.432; E -0.495; M -0.585; C -0.467; W -0.671; I -0.537; H -0.398; V -0.205; G -0.183; Y -0.48
K464: W -0.474; G -0.315; R -0.123; N -0.146; I -0.441; D -0.393; S -0.198; E -0.152; A -0.184; C -0.49; M -0.266; Y -0.503; P -0.968; Q -0.245; F -0.702; H -0.313; V -0.276; T -0.351; L -0.298
Q450: W -0.011; A -0.0533; I -0.0986; L -0.12; F 0.013; Y 0.286; C -0.0453; R 0.0701; V 0.073; E 0.156; N 0.172; D -0.113; P -0.118; K 0.354; M -0.0723; G -0.0458; H 0.0291; T 0.0482; S -0.114
A456: K -0.248; M -0.328; W -0.531; G -0.246; R -0.498; S -0.267; T -0.365; Q -0.514; H -0.479; L -0.287; I -0.12; Y -0.476; P -0.814; C -0.168; V -0.16; D -0.523; N -0.487; E -0.405; F -0.61
E451: L -0.179; F -0.282; R 0.0453; S -0.131; H 0.0926; Q -0.157; N 0.26; W -0.143; D -0.178; K -0.241; A -0.0912; M 0.0404; I -0.186; T -0.12; P -0.158; C -0.198; Y 0.131; V -0.135; G -0.0413
L448: Q -0.202; V -0.117; K -0.743; R -0.341; T -0.164; Y -0.324; W -0.658; N -0.42; M 0.207; S -0.184; P -0.895
T460: E -0.212; R -0.0566; N -0.00346; D -0.312; V -0.029; K -0.0077; Q -0.131; F -0.157; P -0.347; S -0.019; G -0.0856; I -0.102; L -0.235; W -0.305; A -0.00746; M -0.152; H -0.38; C -0.0915; Y -0.219
M462: Y -0.369; N -0.31; R -1.12; Q -0.198; C -0.0756; P -0.578; L -0.449; K -1.21; E -0.603; A -0.0163; G -0.215; H -0.138; I -0.13; D -0.463; W -0.592; S -0.0759; F -0.254; V -0.097; T 0.0162
H454: Q -0.0422; D -0.376; I -0.184; S -0.168; K -0.0092; G -0.0392; F -0.268; A 0.182; L -0.234; P -0.139; V -0.00673; N 0.24; T 0.153; C 0.0357; M -0.158; E -0.068; R -0.00791; Y -0.087; W 0.536
T455: R -0.0505; Q 0.174; W -0.419; S 0.128; D -0.394; G -0.211; H 0.0572; F -0.273; Y -0.209; C 0.318; E -0.119; P -0.714; N 0.0652; A -0.141; I 0.0349; V -0.122; L -0.171; M -0.111; K -0.247
T449: K -0.144; Q -0.0362; S 0.084; F -0.363; A 0.0699; L -0.0459; N -0.203; V -0.286; W -0.634; R 0.00957; D -0.211; Y 0.0178; H -0.131; M -0.0649; P -0.0904; C -0.0406; G -0.132; I -0.282; E -0.0743
V458: H -0.592; T -0.214; R -0.663; P -0.535; G -0.853; Q -0.711; S -0.192; M -0.204; N -0.786; C -0.27; I -0.0811; D -0.952; W -0.709; L -0.294; A -0.667; F -0.4; Y -0.724; E -0.975; K -0.57
F453: R -1.09; Y -0.106; D -1.22; S -0.421; V -0.184; A -0.66; P -0.896; T -0.694; E -1.1; H -0.758; W -0.274; G -0.893; C -0.791; M -0.51; K -0.87; Q -0.887; L -0.306; I -0.334; N -1.25
V465: S -0.646; K -1.19; G -0.801; I -0.0425; R -1.13; M -0.396; Y -1.23; W -1.07; T -0.191; N -0.54; P -1.18; H -0.79; E -1.42; Q -1.17; F -0.73; L -0.379; A -0.0879; D -0.864; C 0.0124
K463: I -0.089; V -0.129; E -0.265; M -0.0542; D -0.287; T -0.141; A -0.157; S -0.241; Q -0.183; G -0.303; Y -0.191; N -0.338; P -0.617; R -0.0765; H -0.12; C -0.196; W -0.075; L -0.0958; F -0.101
S459: Q -0.749; E -1.11; W -0.631; I -0.53; Y -0.268; T -0.392; L -0.866; F -0.45; K -1.03; V -0.746; A -0.218; D -0.823; P -0.197; H -0.136; R -1.13; G -0.212; C -0.291; M -0.693; N -0.679
